Biological target: vinc_mouse Vcl (UniProt Q64727)
Sequence (Q64727 whole entry): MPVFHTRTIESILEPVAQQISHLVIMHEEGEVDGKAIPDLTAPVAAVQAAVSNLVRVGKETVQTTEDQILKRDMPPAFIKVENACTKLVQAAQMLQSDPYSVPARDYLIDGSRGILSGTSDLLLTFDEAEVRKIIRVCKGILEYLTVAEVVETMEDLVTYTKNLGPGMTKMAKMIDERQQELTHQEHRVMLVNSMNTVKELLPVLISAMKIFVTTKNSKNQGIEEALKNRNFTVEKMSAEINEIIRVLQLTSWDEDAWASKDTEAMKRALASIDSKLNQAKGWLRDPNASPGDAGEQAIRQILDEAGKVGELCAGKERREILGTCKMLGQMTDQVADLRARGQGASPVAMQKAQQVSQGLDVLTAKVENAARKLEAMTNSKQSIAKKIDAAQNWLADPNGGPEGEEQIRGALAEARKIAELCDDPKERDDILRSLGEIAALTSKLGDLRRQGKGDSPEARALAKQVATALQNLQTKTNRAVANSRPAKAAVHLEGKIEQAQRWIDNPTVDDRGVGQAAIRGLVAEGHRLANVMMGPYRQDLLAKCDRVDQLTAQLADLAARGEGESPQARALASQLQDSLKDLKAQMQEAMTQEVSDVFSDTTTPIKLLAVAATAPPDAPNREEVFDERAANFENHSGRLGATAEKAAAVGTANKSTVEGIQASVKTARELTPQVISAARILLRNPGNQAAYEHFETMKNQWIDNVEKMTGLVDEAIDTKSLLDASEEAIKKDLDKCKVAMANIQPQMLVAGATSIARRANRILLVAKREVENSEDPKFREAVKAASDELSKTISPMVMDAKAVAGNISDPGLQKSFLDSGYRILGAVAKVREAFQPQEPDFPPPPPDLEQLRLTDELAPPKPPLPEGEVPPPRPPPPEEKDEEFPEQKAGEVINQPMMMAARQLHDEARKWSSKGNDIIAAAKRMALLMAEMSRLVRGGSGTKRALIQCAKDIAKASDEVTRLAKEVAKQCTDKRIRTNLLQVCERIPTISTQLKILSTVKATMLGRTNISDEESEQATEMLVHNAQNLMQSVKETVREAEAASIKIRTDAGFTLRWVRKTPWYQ

Chain of Paxillin (Gallus gallus (Chicken)), P49024 Y31F;Y118F (P49024 whole entry Y31F/Y118F): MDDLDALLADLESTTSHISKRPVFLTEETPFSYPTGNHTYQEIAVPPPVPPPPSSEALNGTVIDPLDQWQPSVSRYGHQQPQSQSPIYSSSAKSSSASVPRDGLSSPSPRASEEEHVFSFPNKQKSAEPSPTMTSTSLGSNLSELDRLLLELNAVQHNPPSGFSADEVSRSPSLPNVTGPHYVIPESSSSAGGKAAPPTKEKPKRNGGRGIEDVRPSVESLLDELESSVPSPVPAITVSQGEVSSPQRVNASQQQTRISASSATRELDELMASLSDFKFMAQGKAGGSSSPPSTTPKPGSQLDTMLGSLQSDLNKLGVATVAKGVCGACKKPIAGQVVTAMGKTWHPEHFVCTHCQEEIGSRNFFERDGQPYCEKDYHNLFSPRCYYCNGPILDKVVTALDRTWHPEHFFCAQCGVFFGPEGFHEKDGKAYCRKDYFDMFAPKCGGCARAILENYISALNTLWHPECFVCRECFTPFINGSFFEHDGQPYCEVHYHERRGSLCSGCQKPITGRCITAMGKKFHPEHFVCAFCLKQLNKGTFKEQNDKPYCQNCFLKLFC
Chain of Paxillin (Gallus gallus (Chicken)), P49024 Y31E;Y118E (P49024 whole entry Y31E/Y118E): as the sequence (P49024 whole entry Y31F/Y118F) above, with F31E, F118E counted along it

Substance	effect of a mutation on the interaction
Paxillin (Gallus gallus (Chicken)), P49024 Y31E;Y118E	increasing interaction
Paxillin (Gallus gallus (Chicken)), P49024 Y31F;Y118F	decreasing interaction
